The target of the assay is human Hsp60 (human, UniProt P10809 27-573, biotin (biotinylated Hsp60, site not stated)). Nature of the assay: cell-based or functional assay.
human Hsp60, sequence (P10809 27-573): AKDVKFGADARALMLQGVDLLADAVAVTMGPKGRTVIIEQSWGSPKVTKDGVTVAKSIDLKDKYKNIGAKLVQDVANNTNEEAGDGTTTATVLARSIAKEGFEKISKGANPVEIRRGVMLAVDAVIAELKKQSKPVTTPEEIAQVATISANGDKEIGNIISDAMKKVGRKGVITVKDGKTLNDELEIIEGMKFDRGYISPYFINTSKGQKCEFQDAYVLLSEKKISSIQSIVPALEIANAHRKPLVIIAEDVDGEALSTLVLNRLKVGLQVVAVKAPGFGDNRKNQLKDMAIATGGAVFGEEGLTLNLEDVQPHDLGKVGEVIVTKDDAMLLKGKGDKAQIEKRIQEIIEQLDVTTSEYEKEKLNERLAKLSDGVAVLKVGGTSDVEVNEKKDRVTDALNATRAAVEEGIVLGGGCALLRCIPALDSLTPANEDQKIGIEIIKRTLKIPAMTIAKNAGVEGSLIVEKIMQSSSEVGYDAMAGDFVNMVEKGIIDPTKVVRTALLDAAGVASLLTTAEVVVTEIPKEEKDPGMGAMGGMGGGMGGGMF

B1: Listeria adhesion protein (LAP) of L. monocytogenes expressed on recombinant Lactobacillus paracasei (Lbp^LAP) (natural protein)
chain: MAIKENAAQEVLEVQKVIDRLADNGQKALKAFESYNQEQVDNIVHAMALAGLDQHMPLAKLAVEETGRGLYEDKCIKNIFATEYIWNNIKNNKTVGVINEDLQTGVIEIAEPVGVVAGVTPVTNPTSTTLFKAIIAIKTRNPIIFAFHPSAQRCSSAAAKVVYDAAIAAGAPEHCIQWVEKPSLEATKQLMNHDKVALVLATGGAGMVKSAYSTGKPALGVGPGNVPAYIDKTAKIKRSVNDIILSKSFDQGMICASEQAVIVDKEVAKEVKAEMEANNCYFVKGAEFKKLESYVINPEKGTLNPDVVGKSPAWIANQAGFKVPEDTKILVAEIKGVGDKYPLSHEKLSPVLAFIEAANQAEAFDRCEEMLVYGGLGHSAVIHSTDKEVQKAFGIRMKACRIIVNAPSAQGGIGDIYNGFIPSLTLGCGSYGKNSVSQNVSATNLLNVKRIADRRNNMQWFKLPPKIFFEKYSTQYLQKMEGVERVFIVTDPGMVQFKYVDVVIEHLKKRGNDVSYQVFADVEPDPSDVTVYKGAELMKDFKPDTIIALGGGSAMDAAKGMWLFYEHPEASFFGLKQKFLDIRKRTFKYPKLGGKAKFVAIPTTSGTGSEVTPFAVITDKENNIKYPLADYELTPDVAIVDAQYVTTVPAHITADTGMDVLTHAIESYVSVMASDYTRGLSIRAIELVFENLRESVLTGDPDAREKMHNASALAGMAFANAFLGINHSLAHKIGPEFHIPHGRANAILMPHVIRYNALKPKKHALFPRYESFRADEDYARISRIIGFPAATTEEGVKSLVDEIIKLGKDVGIDMSLKGQNVAKKDLDAVVDTLADRAFMDQCTTANPKQPLVSELKEIYLEAYKGV
As for B1, the “transepithelial translocation of Lbp^LAP cells through Caco-2 monolayers (transwell, 2 h), against Lbp^WT” value was found to be 5.1 fold.

Values taken from article PMC3250429, “Recombinant Probiotic Expressing Listeria Adhesion Protein Attenuates Listeria monocytogenes Virulence In Vitro” (PLoS ONE, 2012).
